{"source": "paper PMC5910394", "about": "(2018)", "binders": {"B1": {"name": "5-diphenylalanine long meditope ((Ac)CQFDA(Ph)2STRRLRCGGSK) (peptide)", "peptide": "Ac-CQFDASTRRLRCGGSK", "modifications": "disulfide 1-12 (inferred); not fully specified (residue 5); printed as (Ac)CQFDA(Ph)2STRRLRCGGSK"}}, "key": {"[1]": {"target": "anti-HER2 memAb (trastuzumab-based, meditope-enabled anti-HER2 antibody)", "sequence (VH, as listed by the source, chain 1 of 2)": "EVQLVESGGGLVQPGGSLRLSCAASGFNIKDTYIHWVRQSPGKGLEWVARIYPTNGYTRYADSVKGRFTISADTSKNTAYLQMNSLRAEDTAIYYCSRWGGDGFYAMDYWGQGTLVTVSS", "sequence (VL, as listed by the source, chain 2 of 2)": "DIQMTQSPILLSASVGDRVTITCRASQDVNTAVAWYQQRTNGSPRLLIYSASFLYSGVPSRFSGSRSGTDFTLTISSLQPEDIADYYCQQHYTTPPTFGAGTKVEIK", "experiment": "SPR"}, "Ile83Glu anti-HER2 memAb": {"target": "Ile83Glu anti-HER2 memAb", "sequence (VH, as listed by the source, chain 1 of 2)": "as the sequence (VH, as listed by the source, chain 1 of 2) above", "sequence (VL, as listed by the source, chain 2 of 2)": "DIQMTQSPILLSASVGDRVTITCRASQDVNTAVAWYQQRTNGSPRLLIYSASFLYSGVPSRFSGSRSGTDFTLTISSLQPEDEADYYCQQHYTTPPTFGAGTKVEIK", "experiment": "SPR"}}, "note": "Positions of bridges follow the written chain, without caps; N, C: chain ends. No end group written: not given here.", "data": [{"binder": "B1", "values": [{"measurement": "Kd", "setting": "[1]", "value": 39, "unit": "nM"}]}, {"binder": "CQFDLSTRRLKC (disulfide 1-12 (inferred))", "note": "[original meditope (CQFDLSTRRLKC)]", "values": [{"measurement": "Kd", "setting": "Ile83Glu anti-HER2 memAb", "value": 20, "unit": "nM"}]}]}
